Assay results reported in the supplement of paper PMC7125110.
± gives the standard error. Fewer inactive variants are shown than the library holds.

B1: glmS ribozyme (parent)
chain: AUAAAAGCGCCAGAACUACAGAAAUGUAGUUGACGAGGAGGAGGUUUAUCGAAUUUUCGGCGGAUGCCUCCAAA

Tests used:
Conditions in all cases: with glucosamine-6-phosphate
glucosamine-6-phosphate [1] = variants of: B1; assay: self-cleavage kobs at 40 uM GlcN6P; higher = faster cleavage; RNA array
Procedure, shortened: (§1)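 Tiles of sequenced MiSeq chips were imaged over ~14 h at 37 °C. On them, barcoded ribozyme variants had been transcribed in situ by E. coli RNA polymerase and were tracked via a hybridised Cy3 probe while glucosamine-6-phosphate (40 μM to 10 mM) in HEPES/KCl/Mg(OAc)2 buffer flowed in. Per-tile medians, normalised to baseline and to non-cleaving reference variants, were fit to one- or two-exponential decays for kobs, and weighted Michaelis–Menten fits gave kcat and KM.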

glucosamine-6-phosphate [2] = variants of: B1; assay: self-cleavage kobs at 160 uM GlcN6P; higher = faster cleavage; RNA array
Procedure, shortened: as §1

glucosamine-6-phosphate [3] = variants of: B1; assay: self-cleavage kobs at 640 uM GlcN6P; higher = faster cleavage; RNA array
Procedure, shortened: as §1

glucosamine-6-phosphate [4] = variants of: B1; assay: self-cleavage kobs at 2500 uM GlcN6P; higher = faster cleavage; RNA array
Procedure, shortened: as §1

glucosamine-6-phosphate [5] = variants of: B1; assay: self-cleavage kobs at 10000 uM GlcN6P; higher = faster cleavage; RNA array
Procedure, shortened: as §1

Row | Variant | self-cleavage kobs at 40 uM GlcN6P (glucosamine-6-phosphate [1]) | self-cleavage kobs at 160 uM GlcN6P (glucosamine-6-phosphate [2]) | self-cleavage kobs at 640 uM GlcN6P (glucosamine-6-phosphate [3]) | self-cleavage kobs at 2500 uM GlcN6P (glucosamine-6-phosphate [4]) | self-cleavage kobs at 10000 uM GlcN6P (glucosamine-6-phosphate [5])
1 | A14G A53G | 0.00182 ± 0.00029 s⁻¹ | 0.00412 ± 0.00073 s⁻¹ | 0.0226 ± 0.0043 s⁻¹ | 0.0146 ± 0.0045 s⁻¹ | 0.0452 ± 0.013 s⁻¹
2 | G13A G62U C70U | < 1e-05 s⁻¹ |  |  |  | < 1e-05 s⁻¹
3 | G13C G66C | < 1e-05 s⁻¹ |  | < 1e-05 s⁻¹ |  | 
4 | A15C G35U A36G U65C C68A | < 1e-05 s⁻¹ |  |  |  | < 1e-05 s⁻¹
5 | A14G C50G C68U U69A C71G | 0.000105 ± 1.7e-05 s⁻¹ |  |  | 0.000379 ± 8.1e-05 s⁻¹ | 0.000199 ± 5.1e-05 s⁻¹
6 | G13A U30C A42U | < 1e-05 s⁻¹ |  |  |  | < 1e-05 s⁻¹
7 | A15C G40A U49G C71U | < 1e-05 s⁻¹ |  |  |  | 4.71e-05 ± 1.3e-05 s⁻¹
8 | A12U U45G U46A | 0.000262 ± 8.5e-05 s⁻¹ |  |  | 0.00886 ± 0.0031 s⁻¹ | 
9 | G13C C50G G66C | 3.47e-05 ± 1.6e-05 s⁻¹ |  |  |  | 
10 | A14G C50G C71U | 0.000639 ± 0.00021 s⁻¹ | 0.000245 ± 7.3e-05 s⁻¹ | 0.00131 ± 0.00027 s⁻¹ |  | 4.82e-05 ± 2e-05 s⁻¹
11 | G13C A36G A39U | < 1e-05 s⁻¹ |  | < 1e-05 s⁻¹ | < 1e-05 s⁻¹ | 
12 | G13A C58U C67G | < 1e-05 s⁻¹ |  |  |  | 
13 | A15C U30G A39U | 0.00162 ± 0.00029 s⁻¹ |  |  |  | 0.0346 ± 0.013 s⁻¹
14 | A14U U30G C34U G40A A52G C68G | < 1e-05 s⁻¹ |  |  |  | < 1e-05 s⁻¹
15 | A14U G32C C50A C68G | 8.36e-05 ± 3e-05 s⁻¹ |  | 0.000278 ± 7.7e-05 s⁻¹ | 0.000126 ± 6e-05 s⁻¹ | 7.34e-05 ± 2.2e-05 s⁻¹
16 | A15C C50G A53G G62A C70G | 0.000105 ± 3e-05 s⁻¹ |  | 8.17e-05 ± 2.4e-05 s⁻¹ | 0.000125 ± 4.1e-05 s⁻¹ | 8.78e-05 ± 1.9e-05 s⁻¹
17 | G13A C34A A36U C68G | 8.42e-05 ± 3e-05 s⁻¹ |  |  |  | 6.2e-05 ± 2.4e-05 s⁻¹
18 | A14C U31A U54A | 0.000186 ± 4.9e-05 s⁻¹ |  |  |  | 0.0192 ± 0.0058 s⁻¹
19 | A14U U30C C61U C68A | < 1e-05 s⁻¹ |  |  |  | 
20 | G13U G37A | < 1e-05 s⁻¹ | < 1e-05 s⁻¹ |  |  | 6.96e-05 ± 8.5e-06 s⁻¹
21 | G13A U49A A64G | < 1e-05 s⁻¹ | < 1e-05 s⁻¹ | < 1e-05 s⁻¹ |  | 
22 | G13C A15C G51U | < 1e-05 s⁻¹ |  |  |  | 
23 | G13C U49C | < 1e-05 s⁻¹ |  |  | < 1e-05 s⁻¹ | < 1e-05 s⁻¹
24 | G13C U47C | < 1e-05 s⁻¹ | < 1e-05 s⁻¹ |  |  | 
25 | A14U A48C G51C U65G | < 1e-05 s⁻¹ |  |  |  | < 1e-05 s⁻¹
26 | A14C G63A | < 1e-05 s⁻¹ |  | < 1e-05 s⁻¹ |  | < 1e-05 s⁻¹
